The labels stand for the following.
B1: unnamed (protein)
chain 1: EVQLVESGGGLVQPGGSLRLSCAASGFTFSSSGMSWVRQAPGKGLEWVSVIASSGSNTYYADSVKGRFTISRDNSKNTLYLQMNSLRAEDTAVYYCARSIFYTTWGQGTLVTVSS
chain 2: not shown
B2: unnamed (protein)
chain 1: QVQLQQSGAELVKPGASVKLSCKASGYTFRSYDINWVRQRPEQGLEWIGWIFPGDGSTKYNEKFKGKATLTTDKSSSTAYMQLSRLTSEDSAVYFCARWTVVGPGYFDVWGAGTTVTVSS
chain 2: QIVLTQSPAIMSASPGEKVTITCSASSSVSYMNWFQQKPGTSPKLWIYSTSNLASGVPARFSGSGSGTSYSLTISRMEAEDAATYYCQQRSSYPNTFGGGTKLEIK
B3: unnamed (protein)
chain 1: QVQLVESGGGLVKPGGSLRLSCAASGFTFSDYYMNWIRQAPGKGLEWVSYISSSGSIIYYADSVKGRFTISRDNAKNSLYLQMNSLRAEDTAVYYCAREGRIAARGMDVWGQGTTVTVSS
chain 2: DIQMTQSPSSLSASVGDRVSITCRPSQSFSRYINWYQQKPGKAPKLLIHAASSLVGGVPSRFSGSGSGTDFTLTISSLQPEDFATYYCQQTYSNPPITFGQGTRLEMK
B4: unnamed (protein)
chain 1: QVQLQESGPGLVRPSQTLSLTCTVSGYSITSDHAWSWVRQPPGRGLEWIGYISYSGITTYNPSLKSRVTMLRDTSKNQFSLRLSSVTAADTAVYYCARSLARTTAMDYWGQGSLVTVSS
chain 2: DIQMTQSPSSLSASVGDRVTITCRASQDISSYLNWYQQKPGKAPKLLIYYTSRLHSGVPSRFSGSGSGTDFTFTISSLQPEDIATYYCQQGNTLPYTFGQGTKVEIK
B5: unnamed (protein)
chain 1: EVQLVESGGGLVQPGGSLRLSCAASGFTFSSYVMSWVRQAPGKGLEWVATISSGGSYTYYPDSVKGRFTISRDNAKNTLYLQMNSLRAEDTAVYYCARRGDSMITTDYWGQGTLVTVSS
chain 2: DIQMTQSPSSLSASVGDRVTITCKASQDVGTAVAWYQQKPGKAPKLLIYWASTRHTGVPSRFSGSGSGTDFTLTISSLQPEDFATYYCQQYSSYRTFGQGTKVEIK
B6: unnamed (protein)
chain 1: QVQLVQSGAEVKKPGASVKVSCKASGYTFTNYGLSWVRQAPGQGLEWMGWISANNGDTNYGQEFQGRVTMTTDTSTSTAYMELRSLRSDDTAVYYCARDSSSSWARWFFDLWGRGTLVTVSS
chain 2: SYVLTQPPSVSVAPGKTARITCGGNIIGSKLVHWYQQKPGQAPVLVIYDDGDRPSGIPERFSGSNSGNTATLTISRVEAGDEADYYCQVWDTGSDPVVFGGGTKLTVL
B7: unnamed (protein)
chain 1: QVQLVQSGAEVKKPGASVKVSCKASGYIFITYWMTWVRQAPGQGLEWMGQIFPASGSADYNEKFEGRVTMTTDTSTSTAYMELRSLRSDDTAVYYCARGGGGFAYWGQGTLVTVSS
chain 2: DIQMTQSPSSLSASVGDRVTITCRTSENIYSYLAWYQQKPGKAPKLLIYNAKTLAEGVPSRFSGSGSGTDFTLTISSLQPEDFATYYCQHHYGIPFTFGQGTKVEIK
B8: unnamed (protein)
chain 1: QGQLVQSGAEVKKPGASVKVSCKASGYTFTDYEMHWVRQAPIHGLEWIGVIESETGGTAYNQKFKGRVTITADKSTSTAYMELSSLRSEDTAVYYCAREGITTVATTYYWYFDVWGQGTTVTVSS
chain 2: DVVMTQSPLSLPVTLGQPASISCRSSQSIVHSNGNTYLEWYLQKPGQSPQLLIYKVSNRFSGVPDRFSGSGSGTDFTLKISRVEAEDVGVYYCFQGSHVPLTFGQGTKLEIK
B9: unnamed (protein)
chain 1: QVQLQQSGAEVKKPGSSVRVSCKASGGTFNNNAINWVRQAPGQGLEWMGGIIPMFGTAKYSQNFQGRVAITADESTGTASMELSSLRSEDTAVYYCARSRDLLLFPHHALSPWGRGTMVTVSS
chain 2: SSELTQDPAVSVALGQTVRVTCQGDSLRSYYASWYQQKPGQAPVLVIYGKNNRPSGIPDRFSGSSSGNTASLTITGAQAEDEADYYCSSRDSSGNHWVFGGGTELTVL
B10: unnamed (protein)
chain 1: EVQLVQSGAEVKKPGESLKISCKGSGYSFTDYYMKWARQMPGKGLEWMGDIIPSNGATFYNQKFKGQVTISADKSISTTYLQWSSLKASDTAMYYCARSHLLRASWFAYWGQGTMVTVSS
chain 2: DIVMTQSPDSLAVSLGERATINCESSQSLLNSGNQKNYLTWYQQKPGQPPKPLIYWASTRESGVPDRFSGSGSGTDFTLTISSLQAEDVAVYYCQNDYSYPYTFGQGTKLEIK
B11: unnamed (protein)
chain 1: QAYLQQSGAELVRPGASVKMSCKASGYTFTSYNMHWVKQTPRQGLEWIGAIYPGNGDTSYNQKFKGKATLTVDKSSSTAYMQLSSLTSEDSAVYFCARVVYYSNSYWYFDVWGTGTTVTVSG
chain 2: QIVLSQSPAILSASPGEKVTMTCRASSSVSYMHWYQQKPGSSPKPWIYAPSNLASGVPARFSGSGSGTSYSLTISRVEAEDAATYYCQQWSFNPPTFGAGTKLELK
B12: unnamed (protein)
chain 1: QAYLQQSGAELVRPGASVKMSCKASGYTFTSYNMHWVKQTPRQGLEWIGGIYPGNGDTSYNQKFKGKATLTVGKSSSTAYMQLSSLTSEDSAVYFCARYDYNYAMDYWGQGTSVTVSS
chain 2: QIVLSQSPAILSASPGEKVTMTCRASSSVSYMHWYQQKPGSSPKPWIYATSNLASGVPARFSGSGSGTSYSFTISRVEAEDAATYYCQQWTFNPPTFGGGTRLEIK
B13: unnamed (protein)
chain 1: EVQLVQSGAEVKKPGESLKISCKGSGYSFTTYWLGWVRQMPGKGLDWIGIMSPVDSDIRYSPSFQGQVTMSVDKSITTAYLQWNSLKASDTAMYYCARRRPGQGYFDFWGQGTLVTVSS
chain 2: DIQMTQSPSSLSASVGDRVTITCRASQGISSWLAWYQQKPEKAPKSLIYAASSLQSGVPSRFSGSGSGTDFTLTISSLQPEDFATYYCQQYNIYPYTFGQGTKLEIK
B14: unnamed (protein)
chain 1: EVQLVESGGGLVQPGGSLRLSCAASGFTFSSHDMHWVRQATGKGLEWVSGIGTAGDTYYPDSVKGRFTISRENAKNSLYLQMNSLRAGDTAVYYCARDRYSPTGHYYGMDVWGQGTTVTVSS
chain 2: DIQMTQSPSTLSASVGDRVTITCRASQSISSWLAWYQQKPGKAPKLLIYKASSLESGVPSRFSGSGSGTEFTLTISSLQPDDFATYYCKQYADYWTFGQGTKVEIK
B15: unnamed (protein)
chain 1: QVQLVQSGAEVKKPGSSVKVSCKASGYTFTDYEMHWVRQAPGQGLEWIGAVAPETGGTAYNQKFKGRATITADKSTSTAYMELSSLRSEDTAVYYCTSTVVPFAYWGQGTLVTVSS
chain 2: QIQLTQSPSSLSASVGDRVTITCSASSSVSYMYWYQQKPGKAPKAWIYRTSNLASGVPSRFSGSGSGTDYTLTISSLQPEDFATYYCQQYQSLPLTFGGGTKVEIK
B16: unnamed (protein)
chain 1: QVQLVESGGGVVQPGRSLRLSCAASGFTFSSYGMHWVRQAPGKGLEWVAVIWYDGSNKYYADSVKGRFTISRDNSKNTLYLQMNSLRAEDTAVYYCARDPRGATLYYYYYGMDVWGQGTTVTVSS
chain 2: DIQMTQSPSSLSASVGDRVTITCRASQSINSYLDWYQQKPGKAPKLLIYAASSLQSGVPSRFSGSGSGTDFTLTISSLQPEDFATYYCQQYYSTPFTFGPGTKVEIK
B17: unnamed (protein)
chain 1: EVQMVQSGAEVKKPGEPLKISCKGSGYKFGTHWIGWVRQRPGKGLEWMGIIHPADSETKYSPSFQGQVSFSADKSSNTAYLHWSTLRASDTAMYYCARRSGSSSWYALDFWGQGTMVTVSS
chain 2: QSVLTQSPSASGTPGQRVTISCSGGSSNIGSNTVNWYQQFPGAAPKLLIYTNNQRPSGVPDRFSGSKSGTSASLAISGLQSEDEADYYCATWDDSLNGLYVFGTGTKVTVL
B18: unnamed (protein)
chain 1: QVKLQESGAELARPGASVKLSCKASGYTFTNYWMQWVKQRPGQGLDWIGAIYPGDGNTRYTHKFKGKATLTADKSSSTAYMQLSSLASEDSGVYYCARGEGNYAWFAYWGQGTTVTVSS
chain 2: DIELTQSPASLSASVGETVTITCQASENIYSYLAWHQQKQGKSPQLLVYNAKTLAGGVSSRFSGSGSGTHFSLKIKSLQPEDFGIYYCQHHYGILPTFGGGTKLEIK
B19: unnamed (protein)
chain 1: QVQLQQWGAGLLKPSETLSLTCAVYGGSFSGYYWSWIRQPPGKGLEWIGEINHSGSTNYNPSLKSRVTISVDTSKNQFSLKLSSVTAADTAVYYCARGYYDILTGYYYYFDYWGQGTLVTVSS
chain 2: EIVLTQSPATLSLSPGERATLSCRASQSVSRYLAWYQQKPGQAPRLLIYDASNRATGIPARFSGSGSGTDSTLTISSLEPEDFAVYYCQQRSNWPRTFGQGTKVEIK
B20: unnamed (protein)
chain 1: QMQLVESGGGVVQPGRSLRLSCAASGFTFRTYGMHWVRQAPGKGLEWVAVIWYDGSNKHYADSVKGRFTITRDNSKNTLNLQMNSLRAEDTAVYYCARAPQWELVHEAFDIWGQGTMVTVSS
chain 2: SYVLTQPPSVSVAPGQTARITCGGNNLGSKSVHWYQQKPGQAPVLVVYDDSDRPSWIPERFSGSNSGNTATLTISRGEAGDEADYYCQVWDSSSDHVVFGGGTKLTVL

“And” between values parts separate entries of the source, which are not always exact repeats. Equal entries are not always repeated.

A short description of this data set: patients with anti-drug antibodies; higher = more immunogenic.
As for B1, the “patients with anti-drug antibodies” value was found to be 26%. For the protein B2, the “patients with anti-drug antibodies” value was found to be 28%. As for B3, the “patients with anti-drug antibodies” value was 2.9%.

For the protein B4, the “patients with anti-drug antibodies” value stood at 2%.

On to B5, for which the “patients with anti-drug antibodies” value was determined as 0%. As to B6, the “patients with anti-drug antibodies” value is 0.5%. On to B7, for which the “patients with anti-drug antibodies” value amounted to 6.5%. Regarding B8, the “patients with anti-drug antibodies” value is 1%.

Regarding B9, the “patients with anti-drug antibodies” value is 2.4%. Turning to B10, the “patients with anti-drug antibodies” value is 17.5%. As to B11, the “patients with anti-drug antibodies” value amounted to 45.5%.

Turning to B12, the “patients with anti-drug antibodies” value is 0%. For B13, the “patients with anti-drug antibodies” value was 4%.

B14: the “patients with anti-drug antibodies” value worked out at 3%.

Turning to B15, the “patients with anti-drug antibodies” value was 0%. The value for B16 was 2% and 0%.

Consider B17, for which the “patients with anti-drug antibodies” value turned out to be 2.1%. B18: the “patients with anti-drug antibodies” value came to 68.1%.

As to B19, the “patients with anti-drug antibodies” value came to 4.4%. For B20, the “patients with anti-drug antibodies” value was 2.1%.

The values above are taken from the FLAb antibody collection.
